Reference: PMC2839090
pKd: −log10 of the molar value.

Target: GST fused with the C-terminal variable region of LigB (LigBCtv; amino acids 1418-1889) (Leptospira interrogans serovar Pomona)
Experiment: ITC

- pKd: 5.07
Substance: Human plasma fibronectin (natural protein)
